In patent US20110236325A1, “METHODS TO TREAT OR PREVENT A SKIN CONDITION USING A NELL1 PEPTIDE” (NellOne Therapeutics, Inc., priority 2010, published 2011):

Test system: EFT-400 tissues
Experiment: Gene expression by quantitative PCR custom array in EFT-400 tissues with or without UV irradiation
Settings: for AVG Ct ACTB (housekeeping gene) / AVG Ct AQP3 / AVG Ct BCL2L1 / AVG Ct COL1A1 / AVG Ct COL4A2 / AVG Ct COL5A1 / AVG Ct COL6A1 / AVG Ct COL6A2 / AVG Ct COL7A1 / AVG Ct COL8A1 / AVG Ct COL11A1 / AVG Ct COL12A1 / AVG Ct COL14A1 / AVG Ct COL15A1 / AVG Ct COL16A1 / AVG Ct DSG1 / AVG Ct ERCC1 / AVG Ct FN1 / AVG Ct GAPDH (housekeeping gene) / AVG Ct GDF15 / AVG Ct GSTM3 / AVG Ct HSPA8 / AVG Ct IL1A / AVG Ct IL1B / AVG Ct IL8 / AVG Ct KAL1 / AVG Ct KRT16 / AVG Ct LAMA1 / AVG Ct LAMA2 / AVG Ct LAMA3 / AVG Ct LAMA5 / AVG Ct LAMB1 / AVG Ct LAMB3 / AVG Ct LAMC1 / AVG Ct MMP1 / AVG Ct MMP2 / AVG Ct MT2A / AVG Ct PCNA / AVG Ct RPL13A (housekeeping gene) / AVG Ct SIRT1 / AVG Ct TGFBI / AVG Ct THBS3 / AVG Ct TNC / AVG Ct VTN: No UV
Protocol: EpiDerm-FT™ (EFT-400) tissues were produced and packaged in the MatTek Corporation GMP tissue culture production laboratories following standard procedures. Packaged tissues were stored at 4° C. overnight and then re-equilibrated in EFT-400-ASY medium overnight prior to the start of experiments. The sample size was n=3 for each treatment group in the gene expression experiments; and n=6 (two independent experiments of n=3) for the sunburned cell counts.
Total RNA was isolated from the EFT-400 tissues (RNAqueous kit, Ambion) (n=3) and utilized for gene expression analysis by quantitative PCR on an SABioscience custom array containing 42 Human Extracellular Matrix (ECM) and Adhesion Molecules RT^2 Profiler™ PCR Array, stress and toxicity genes whose expression, based on MatTek data, are known to be dramatically altered by UV-protective compounds on UV damaged skin. […] Further, there were three internal control spots on the array that corresponded to human genomic DNA contamination (HGDC), positive PCR control (PPC), and reverse transcription control (RTC).

B1: Nell 1: Full-length human recombinant NELL1 protein (isoform 1, SEQ ID NO: 2), expressed in a wheat germ cell-free translation system, obtained from Abnova (protein, listed as Homo sapiens)
chain: MPMDLILVVWFCVCTARTVVGFGMDPDLQMDIVTELDLVNTTLGVAQVSGMHNASKAFLFQDIEREIHAAPHVSEKLIQLFRNKSEFTILATVQQKPSTSGVILSIRELEHSYFELESSGLRDEIRYHYIHNGKPRTEALPYRMADGQWHKVALSVSASHLLLHVDCNRIYERVIDPPDTNLPPGINLWLGQRNQKHGLFKGIIQDGKIIFMPNGYITQCPNLNHTCPTCSDFLSLVQGIMDLQELLAKMTAKLNYAETRLSQLENCHCEKTCQVSGLLYRDQDSWVDGDHCRNCTCKSGAVECRRMSCPPLNCSPDSLPVHIAGQCCKVCRPKCIYGGKVLAEGQRILTKSCRECRGGVLVKITEMCPPLNCSEKDHILPENQCCRVCRGHNFCAEGPKCGENSECKNWNTKATCECKSGYISVQGDSAYCEDIDECAAKMHYCHANTVCVNLPGLYRCDCVPGYIRVDDFSCTEHDECGSGQHNCDENAICTNTVQGHSCTCKPGYVGNGTICRAFCEEGCRYGGTCVAPNKCVCPSGFTGSHCEKDIDECSEGIIECHNHSRCVNLPGWYHCECRSGFHDDGTYSLSGESCIDIDECALRTHTCWNDSACINLAGGFDCLCPSGPSCSGDCPHEGGLKHNGQVWTLKEDRCSVCSCKDGKIFCRRTACDCQNPSADLFCCPECDTRVTSQCLDQNGHKLYRSGDNWTHSCQQCRCLEGEVDCWPLTCPNLSCEYTAILEGECCPRCVSDPCLADNITYDIRKTCLDSYGVSRLSGSVWTMAGSPCTTCKCKNGRVCCSVDFECLQNN
activity in producing the observed effects (sunburned cells, gene expression) (NELL1 protein at 100 ng/ml, genistein at 50 μM): most active in producing the observed effects
AVG Ct ACTB (housekeeping gene) (100 ng/ml Nell 1): 18
AVG Ct AQP3 (100 ng/ml Nell 1): 23.05
AVG Ct BCL2L1 (100 ng/ml Nell 1): 24.03
AVG Ct COL1A1 (100 ng/ml Nell 1): 17.82
AVG Ct COL4A2 (100 ng/ml Nell 1): 22.01
AVG Ct COL5A1 (100 ng/ml Nell 1): 22.36
AVG Ct COL6A1 (100 ng/ml Nell 1): 18.82
AVG Ct COL6A2 (100 ng/ml Nell 1): 19.33
AVG Ct COL7A1 (100 ng/ml Nell 1): 25.75
AVG Ct COL8A1 (100 ng/ml Nell 1): 27.28
AVG Ct COL11A1 (100 ng/ml Nell 1): 26.77
AVG Ct COL12A1 (100 ng/ml Nell 1): 24.14
AVG Ct COL14A1 (100 ng/ml Nell 1): 25.88
AVG Ct COL15A1 (100 ng/ml Nell 1): 24.72
AVG Ct COL16A1 (100 ng/ml Nell 1): 23.78
AVG Ct DSG1 (100 ng/ml Nell 1): 20.11
AVG Ct ERCC1 (100 ng/ml Nell 1): 23.72
AVG Ct FN1 (100 ng/ml Nell 1): 20.04
AVG Ct GAPDH (housekeeping gene) (100 ng/ml Nell 1): 17.83
AVG Ct GDF15 (100 ng/ml Nell 1): 23.37
AVG Ct GSTM3 (100 ng/ml Nell 1): 29.11
AVG Ct HSPA8 (100 ng/ml Nell 1): 19.83
AVG Ct IL1A (100 ng/ml Nell 1): 25.17
AVG Ct IL1B (100 ng/ml Nell 1): 28.25
AVG Ct IL8 (100 ng/ml Nell 1): 20.41
AVG Ct KAL1 (100 ng/ml Nell 1): 31.6
AVG Ct KRT16 (100 ng/ml Nell 1): 16.15
AVG Ct LAMA1 (100 ng/ml Nell 1): 28.71
AVG Ct LAMA2 (100 ng/ml Nell 1): 24.38
AVG Ct LAMA3 (100 ng/ml Nell 1): 23.37
AVG Ct LAMA5 (100 ng/ml Nell 1): 26.73
AVG Ct LAMB1 (100 ng/ml Nell 1): 22.69
AVG Ct LAMB3 (100 ng/ml Nell 1): 24.73
AVG Ct LAMC1 (100 ng/ml Nell 1): 22.76
AVG Ct MMP1 (100 ng/ml Nell 1): 20.04
AVG Ct MMP2 (100 ng/ml Nell 1): 18.98
AVG Ct MT2A (100 ng/ml Nell 1): 18.43
AVG Ct PCNA (100 ng/ml Nell 1): 23.56
AVG Ct RPL13A (housekeeping gene) (100 ng/ml Nell 1): 20.37
AVG Ct SIRT1 (100 ng/ml Nell 1): 25.93
AVG Ct TGFBI (100 ng/ml Nell 1): 21.73
AVG Ct THBS3 (100 ng/ml Nell 1): 28.69
AVG Ct TNC (100 ng/ml Nell 1): 21.22
AVG Ct VTN (100 ng/ml Nell 1): 32.48
AVG Ct ACTB (housekeeping gene) (150 ng/ml Nell 1): 18.54
AVG Ct AQP3 (150 ng/ml Nell 1): 23.74
AVG Ct BCL2L1 (150 ng/ml Nell 1): 24.48
AVG Ct COL1A1 (150 ng/ml Nell 1): 18.8
AVG Ct COL4A2 (150 ng/ml Nell 1): 22.92
AVG Ct COL5A1 (150 ng/ml Nell 1): 23.36
AVG Ct COL6A1 (150 ng/ml Nell 1): 19.6
AVG Ct COL6A2 (150 ng/ml Nell 1): 20.05
AVG Ct COL7A1 (150 ng/ml Nell 1): 26.73
AVG Ct COL8A1 (150 ng/ml Nell 1): 28.22
AVG Ct COL11A1 (150 ng/ml Nell 1): 27.51
AVG Ct COL12A1 (150 ng/ml Nell 1): 25
AVG Ct COL14A1 (150 ng/ml Nell 1): 26.52
AVG Ct COL15A1 (150 ng/ml Nell 1): 25.35
AVG Ct COL16A1 (150 ng/ml Nell 1): 24.55
AVG Ct DSG1 (150 ng/ml Nell 1): 20.36
AVG Ct ERCC1 (150 ng/ml Nell 1): 24.07
AVG Ct FN1 (150 ng/ml Nell 1): 20.71
AVG Ct GAPDH (housekeeping gene) (150 ng/ml Nell 1): 18.02
AVG Ct GDF15 (150 ng/ml Nell 1): 23.97
AVG Ct GSTM3 (150 ng/ml Nell 1): 29.74
AVG Ct HSPA8 (150 ng/ml Nell 1): 20.36
AVG Ct IL1A (150 ng/ml Nell 1): 25.55
AVG Ct IL1B (150 ng/ml Nell 1): 29.2
AVG Ct IL8 (150 ng/ml Nell 1): 21.04
AVG Ct KAL1 (150 ng/ml Nell 1): 33.03
AVG Ct KRT16 (150 ng/ml Nell 1): 16.49
AVG Ct LAMA1 (150 ng/ml Nell 1): 29.76
AVG Ct LAMA2 (150 ng/ml Nell 1): 25.3
AVG Ct LAMA3 (150 ng/ml Nell 1): 24.15
AVG Ct LAMA5 (150 ng/ml Nell 1): 27.41
AVG Ct LAMB1 (150 ng/ml Nell 1): 23.44
AVG Ct LAMB3 (150 ng/ml Nell 1): 25.42
AVG Ct LAMC1 (150 ng/ml Nell 1): 23.62
AVG Ct MMP1 (150 ng/ml Nell 1): 20.75
AVG Ct MMP2 (150 ng/ml Nell 1): 19.62
AVG Ct MT2A (150 ng/ml Nell 1): 18.83
AVG Ct PCNA (150 ng/ml Nell 1): 24.11
AVG Ct RPL13A (housekeeping gene) (150 ng/ml Nell 1): 20.81
AVG Ct SIRT1 (150 ng/ml Nell 1): 26.67
AVG Ct TGFBI (150 ng/ml Nell 1): 22.16
AVG Ct THBS3 (150 ng/ml Nell 1): 29.23
AVG Ct TNC (150 ng/ml Nell 1): 22.04
AVG Ct VTN (150 ng/ml Nell 1): 32.57
expression of IL-1β elevated after UV exposure (UV-irradiated): decrease in the expression
expression of IL-8 elevated after UV exposure (UV-irradiated): decrease in the expression
expression of MMP-1 elevated after UV exposure (UV-irradiated): decrease in the expression
levels of AQP3 RNA after UV exposure (UV-irradiated): increased these levels further
UV-elevated levels of AQP3 (UV-irradiated, 100 ng/ml): further increased the UV-elevated levels of AQP3
UV-induced increase in IL-1β RNA level (UV-irradiated, 100 ng/ml): slightly modulated the increases
UV-induced increase in IL-8 RNA level (UV-irradiated, 100 ng/ml): slightly modulated the increases
UV-induced increase in MMP-1 RNA level (UV-irradiated, 100 ng/ml): slightly modulated the increases
